One block for each binder: values may come before it.
Target: T1, Recombinant S. cerevisiae PCNA with an His-Tag (S. cerevisiae, UniProt P15873 1-258)
T1 construct: PCNA (proliferating cell nuclear antigen, gene POL30), S. cerevisiae; also called purified PCNA; source: E. coli (pET28c), purified on a HisTrap column
T1 sequence (looked up): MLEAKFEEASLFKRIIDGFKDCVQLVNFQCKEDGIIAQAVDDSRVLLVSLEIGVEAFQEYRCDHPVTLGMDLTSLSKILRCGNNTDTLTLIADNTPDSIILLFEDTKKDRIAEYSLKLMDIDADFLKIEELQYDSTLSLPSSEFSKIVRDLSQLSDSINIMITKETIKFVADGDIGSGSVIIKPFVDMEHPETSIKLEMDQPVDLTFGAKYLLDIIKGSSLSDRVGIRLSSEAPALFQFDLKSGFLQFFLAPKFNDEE
Experiment: ITC; VP-ITC; 20–25 μM PCNA in the cell, 270 μM peptide in the syringe; 30°C; buffer T (20 mM Tris pH 7.5, 50 mM NaCl, 20 mM β-mercaptoethanol); single set of independent binding sites model
Settings: both partners purified

Kd: > 50000 nM
B1: pPol31 317–337 (peptide)
peptide: KSLFDKSLESYFNGSNKEILN
notes: Pol31 (B subunit of DNA polymerase delta), S. cerevisiae, residues 317-337 with the proposed motif LxxYF; also called Pol31 peptide; non-canonical Pol31 PIP motif peptide; source: synthetic peptide, bought: Genecust, 95% purity

Kd: 310 nM | dH: -6.4 kcal/mol
B2: pMsh6 22–43 (peptide)
peptide: QKKMKQSSLLSFFSKQVPSGTP
notes: Msh6, S. cerevisiae, residues 22-43 with the canonical PIP motif; also called Msh6 peptide; canonical PIP motif of Msh6; source: synthetic peptide, bought: Genecust, 95% purity

Kd: 460 nM | dH: -4.45 kcal/mol
B3: pPol32 333–350 (peptide)
peptide: KRLKKQGTLESFFKRKAK
notes: Pol32 (C subunit of DNA polymerase delta), S. cerevisiae, residues 333-350 (the C-terminal end; K is the last residue of Pol32) with the PIP motif QxxLxxFF; also called Pol32 peptide; Pol32 PIP motif peptide; source: synthetic peptide, bought: Genecust, 95% purity

From paper PMC5760103, “The translesion DNA polymerases Pol ζ and Rev1 are activated independently of PCNA ubiquitination upon UV radiation in mutants of DNA polymerase δ” (PLoS Genetics, 2017)
